# Experimental data as given in publication PMC3366968, “Functional Characterization of a First Avian Cytochrome P450 of the CYP2D Subfamily (CYP2D49)” (PLoS ONE, 2012).
# B1: CYP2D49 (Gallus gallus) (protein)
# chain: MTLLLWLSSWSNISVLGVFLTVFTILVDFMKRRKKWSRYPPGPMPLPFVGTMPYVNYYNPHLSFEKFRKKFGNIFSLQNCWTNVVVLNGYKTVKEALVNKSEDFADRPYMPVYEHLGYGHKSEGLVLARYGHLWKELRKFTLTTLRNFGMGKKSLEERVTEEAGFLCSAISSEGGHPFDPRFLVNNAVCNVICTITYGERFDYGDKTFKKLLTLFENSLNEEAGFLPQLLNVAPVLLRIPGLPQKIFPCQKAYVDFTQMLIDKHKETWNPAYIRDFTDAFLKEMAKGKEAEENGFNKSNLTLVTADLLVAGSETTATTLRWAFLFMLLYPEIQSKVHKEIDKVIGRNRPPTMADQVNMPYTNAVIHEVQRFGDVVPMGLPHMTYRDTELQGFFIPKGTTIITNLTSVLKDETAWKKPNEFYPEHFLNENGQFVRPEAFLPFSAGRRACLGEQLTRMELFIFFTTLMQKFTFVFPEDQPRPREDSHFAFTNSPHPYQLRAVPR
# notes: full-length 502-residue ORF, N-terminal ompA leader (21 aa) plus Leu-Glu spacer, Myc-His-tagged fusion, about 55 kDa, expressed in E. coli DH5alpha, purified by Ni-NTA
# Substrate: CCc1cccc2cc(C(O)CNC(C)(C)C)oc12
# Test: purified protein
# Type: biochemical, Gallus gallus
# Conditions: 2-200 µM bufuralol, NADPH, NADPH-P450 reductase, cytochrome b5, liposome, 10 mM MgCl2, 100 mM potassium phosphate pH 7.4, 37°C
protein,measurement,value
B1,Km,3.948 ± 0.232 µM
